Assay results as given in patent US20190315843A1 (PROTHENA BIOSCIENCES, published 2019).
Positions count from the first letter of the chain named.

B1: humanized 5C1 H4L3 (antibody, V domains shown)
VH: QVQLVQSGAELKKPGSSVKVSCKASGYTFTNYWMNWVRQAPGQGLEWIGATNPNNGYTDYNQRFKDRATLTADKSTNTAYMELSSLRSEDTAVYYCASGGHLAYWGQGTLVTVSS
VL: DVVMTQSPLSLSVSPGEPASISCRSSQSLFHSKGNTYLHWYLQKPGQSPQLLINRVSNRFSGVPDRFSGSGSGTDFTLKISRVEAEDVGVYFCSQSAHVPWTFGGGTKVEIK
notes: The human constant region is not specified; also called h5C1_H4L3
B2: humanized 5C1 H3L4 (antibody, V domains shown)
VH: B1 VH with Y95F
VL: B1 VL with V2I, N54Y
notes: It was captured on an anti-human IgG chip, so it carries a human constant region, which is not specified; also called h5C1_H3L4
B3: humanized 5C1 H4L4 (antibody, V domains shown)
VH: B1 VH
VL: B1 VL with V2I, N54Y
notes: The human constant region is not specified; also called h5C1_H4L4
B4: humanized 5C1 H5L3 (antibody, V domains shown)
VH: B1 VH with A68V, L70I
VL: B1 VL
notes: The human constant region is not specified; also called h5C1_H5L3
B5: humanized 5C1 H5L4 (antibody, V domains shown)
VH: B1 VH with A68V, L70I
VL: B1 VL with V2I, N54Y
notes: The human constant region is not specified; also called h5C1_H5L4
B6: murine 5C1 antibody (antibody, mouse IgG1, V domains shown)
VH: QVQLQQSGAELAKPGTSVQMSCKASGYTFTNYWMNWIKARPGQGLEWIGATNPNNGYTDYNQRFKDKAILTADKSSNTAYMHLSSLTSEDSAVYFCASGGHLAYWGQGTVVTVSA
VL: B1 VL with S7I, S10Y, E17D, P18Q, Q50K, R82G, V88L, V109L, K112R
notes: also called m5C1; mouse 5C1
B7: chimeric 5C1 antibody (antibody, V domains shown)
VH: B6 VH
VL: B1 VL with S7I, S10Y, E17D, P18Q, Q50K, R82G, V88L, V109L, K112R
notes: also called Ch5C1
B8: humanized 5C1 H1L1 (antibody, V domains shown)
VH: B1 VH with S98R
VL: B1 VL with Q50K
notes: The constant region is not specified
B9: humanized 5C1 H3L1 (antibody, V domains shown)
VH: B1 VH with Y95F
VL: B1 VL with Q50K
notes: as for B8
B10: humanized 5C1 H3L3 (antibody, V domains shown)
VH: B1 VH with Y95F
VL: B1 VL
notes: as for B8

What follows are binders tested against T1, wildtype human α-synuclein (human, UniProt P37840 1-140) (assay: SPR (Biacore), antibody captured on anti-human IgG chip, alpha synuclein flowed over, 1:1 model, global fit).
Method: An anti-human IgG CMS Biacore chip was prepared following the protocol supplied by GE Healthcare.
Data was collected and double reference subtracted to account for drift and a small amount of nonspecific binding. The data was analyzed using BIAcore evaluation software using a 1:1 model and a global fit.
B1 showed a Kd of 120 nM and a koff of 0.0051 s⁻¹. B2 gave a Kd of 1240 nM. For B3, the Kd was 601 nM. Work on B4 yielded a Kd of 283 nM. For B5, the Kd was 1060 nM. For B6, the Kd was 68.7 nM, the koff was 0.0051 s⁻¹ and the kon was 75000 M⁻¹ s⁻¹. Binder B7 has a Kd of 86 nM and a koff of 0.0053 s⁻¹.

These binders were tested against T1, wildtype human α-synuclein (assay: ELISA on α-synuclein, twofold dilution series of the antibody).
B8: no binding (tested: 1000 (x axis has no unit)). B9: binds. B10: binds.
